Consider three molecules from US20250388669A1 (published 2025).

The chains are these.
T1: B7H3 (human, UniProt Q5ZPR3 29-466, limits assumed)
T1 sequence (looked up): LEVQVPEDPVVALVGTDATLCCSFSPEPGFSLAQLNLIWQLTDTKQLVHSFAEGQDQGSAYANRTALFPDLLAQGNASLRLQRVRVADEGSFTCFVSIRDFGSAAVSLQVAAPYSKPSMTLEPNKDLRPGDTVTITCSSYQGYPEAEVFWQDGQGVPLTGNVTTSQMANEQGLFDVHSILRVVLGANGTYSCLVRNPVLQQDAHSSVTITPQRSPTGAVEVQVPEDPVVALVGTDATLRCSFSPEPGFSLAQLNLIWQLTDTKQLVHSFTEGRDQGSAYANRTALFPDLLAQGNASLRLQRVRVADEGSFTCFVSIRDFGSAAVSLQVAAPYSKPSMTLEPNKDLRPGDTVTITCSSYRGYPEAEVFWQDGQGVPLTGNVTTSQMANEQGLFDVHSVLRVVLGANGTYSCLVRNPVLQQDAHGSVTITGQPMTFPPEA

B1: Ly2367 (other)
chain 1: QVQLVQSGAEVKKPGASVKVSCKASGYTFTSYVMHWVRQKPGQGLEWIGYINPYNEGTESTDKFKGRATMTSDKSTSTVYMELSSLRSEDTAVYYCASIYYGYEGTYFGVWGQGTLVTVSSASTKGPSVFPLAPSSKSTSGGTAALGCLVKDYFPEPVTVSWNSGALTSGVHTFPAVLQSSGLYSLSSVVTVPSSSLGTQTYICNVNHKPSNTKVDKKVEPKSCGGGGSEVQLVESGGGLVQPGGSLRLSCAASGFTFSTYAMNWVRQAPGKGLEWVGRIRSKYNNYATYYADSVKGRFTISRDDSKNSLYLQMNSLKTEDTAVYYCVRHGNFGNSYVSWFAYWGQGTLVTVSSGGGGSDKTHTCPPCPAPEAAGPSVFLFPPKPKDTLMISRTPEVTCVVVDVSHEDPEVKFNWYVDGVEVHNAKTKPREEQYNSTYRVVSVLTVLHQDWLNGKEYKCKVSNKALPAPIEKTISKAKGQPREPQVYTLPPSREEMTKNQVSLWCLVKGFYPSDIAVEWESNGQPENNYKTTPPVLDSDGSFFLYSKLTVDKSRWQQGNVFSCSVMHEALHNHYTQKSLSLSPGGGGGSGGGGSGGGGSGGGGSQVQLVQSGAEVKKPGASVKVSCKASGYTFAGFEMHWVRQAPGQGLEWMGAIDPKTGGTDYNQKFKDRVTMTRDTSISTAYMELSRLRSDDTAVYYCARDLGYFDVWGQGTLVTVSS
chain 2: QVQLVQSGAEVKKPGASVKVSCKASGYTFTSYVMHWVRQKPGQGLEWIGYINPYNEGTESTDKFKGRATMTSDKSTSTVYMELSSLRSEDTAVYYCASIYYGYEGTYFGVWGQGTLVTVSSASTKGPSVFPLAPSSKSTSGGTAALGCLVKDYFPEPVTVSWNSGALTSGVHTFPAVLQSSGLYSLSSVVTVPSSSLGTQTYICNVNHKPSNTKVDKKVEPKSCGGGGSQAVVTQEPSLTVSPGGTVTLTCRSSTGAVTTSNYANWVQQKPGQAPRGLIGGTNKRAPWTPARFSGSLLGGKAALTITGAQAEDEADYYCALWYSNLWVFGGGTKLTVLGGGGSDKTHTCPPCPAPEAAGPSVFLFPPKPKDTLMISRTPEVTCVVVDVSHEDPEVKFNWYVDGVEVHNAKTKPREEQYNSTYRVVSVLTVLHQDWLNGKEYKCKVSNKALPAPIEKTISKAKGQPREPQVYTLPPSREEMTKNQVSLSCAVKGFYPSDIAVEWESNGQPENNYKTTPPVLDSDGSFFLVSKLTVDKSRWQQGNVFSCSVMHEALHNRFTQKSLSLSPGGGGGSGGGGSGGGGSGGGGSDIQMTQSPSSLSASVGDRVTITCRASQDIRSNLNWYQQKPGGAVKLLIYYTSRLHSGVPSRFSGSGSGTDYTLTISSLQPEDFATYFCQQSEKLPRTFGGGTKVEIR
light: EIVLTQSPATLSLSPGERATLSCRASSSVSYMHWYQQKPGQAPRPWIYATSNLASGIPARFSGSRSGTDYTLTISSLEPEDFAVYYCQQWSSNTLTFGGGTKVEIKRTVAAPSVFIFPPSDEQLKSGTASVVCLLNNFYPREAKVQWKVDNALQSGNSQESVTEQDSKDSTYSLSSTLTLSKADYEKHKVYACEVTHQGLSSPVTKSFNRGEC
notes: Tri-specific antibody: B7H3 Fabs, central CD3 Fv, terminal CD137 Fv; Flexible linker is G4S
B2: Ly2384 (other)
chain 1: QVQLVQSGAEVKKPGASVKVSCKASGYTFTSYVMHWVRQKPGQGLEWIGYINPYNEGTESTDKFKGRATMTSDKSTSTVYMELSSLRSEDTAVYYCASIYYGYEGTYFGVWGQGTLVTVSSASTKGPSVFPLAPSSKSTSGGTAALGCLVKDYFPEPVTVSWNSGALTSGVHTFPAVLQSSGLYSLSSVVTVPSSSLGTQTYICNVNHKPSNTKVDKKVEPKSCGGGSEVQLVESGGGLVQPGGSLRLSCAASGFTFSTYAMNWVRQAPGKGLEWVGRIRSKYNNYATYYADSVKGRFTISRDDSKNSLYLQMNSLKTEDTAVYYCVRHGNFGNSYVSWFAYWGQGTLVTVSSGGGGSDKTHTCPPCPAPEAAGPSVFLFPPKPKDTLMISRTPEVTCVVVDVSHEDPEVKFNWYVDGVEVHNAKTKPREEQYNSTYRVVSVLTVLHQDWLNGKEYKCKVSNKALPAPIEKTISKAKGQPREPQVYTLPPSREEMTKNQVSLWCLVKGFYPSDIAVEWESNGQPENNYKTTPPVLDSDGSFFLYSKLTVDKSRWQQGNVFSCSVMHEALHNHYTQKSLSLSPGGGGGSGGGGSGGGGSGGGGSQVQLVQSGAEVKKPGASVKVSCKASGYTFAGFEMHWVRQAPGQGLEWMGAIDPKTGGTDYNQKFKDRVTMTRDTSISTAYMELSRLRSDDTAVYYCARDLGYFDVWGQGTLVTVSS
chain 2: QVQLVQSGAEVKKPGASVKVSCKASGYTFTSYVMHWVRQKPGQGLEWIGYINPYNEGTESTDKFKGRATMTSDKSTSTVYMELSSLRSEDTAVYYCASIYYGYEGTYFGVWGQGTLVTVSSASTKGPSVFPLAPSSKSTSGGTAALGCLVKDYFPEPVTVSWNSGALTSGVHTFPAVLQSSGLYSLSSVVTVPSSSLGTQTYICNVNHKPSNTKVDKKVEPKSCGGGSQAVVTQEPSLTVSPGGTVTLTCRSSTGAVTTSNYANWVQQKPGQAPRGLIGGTNKRAPWTPARFSGSLLGGKAALTITGAQAEDEADYYCALWYSNLWVFGGGTKLTVLGGGGSDKTHTCPPCPAPEAAGPSVFLFPPKPKDTLMISRTPEVTCVVVDVSHEDPEVKFNWYVDGVEVHNAKTKPREEQYNSTYRVVSVLTVLHQDWLNGKEYKCKVSNKALPAPIEKTISKAKGQPREPQVYTLPPSREEMTKNQVSLSCAVKGFYPSDIAVEWESNGQPENNYKTTPPVLDSDGSFFLVSKLTVDKSRWQQGNVFSCSVMHEALHNRFTQKSLSLSPGGGGGSGGGGSGGGGSGGGGSDIQMTQSPSSLSASVGDRVTITCRASQDIRSNLNWYQQKPGGAVKLLIYYTSRLHSGVPSRFSGSGSGTDYTLTISSLQPEDFATYFCQQSEKLPRTFGGGTKVEIR
light: B1 light
notes: Tri-specific antibody: B7H3 Fabs, central CD3 Fv, terminal CD137 Fv; Flexible linker is G3S
B3: Ly2368 (other)
chain 1: QVQLVQSGAEVKKPGASVKVSCKASGYTFTSYVMHWVRQKPGQGLEWIGYINPYNEGTESTDKFKGRATMTSDKSTSTVYMELSSLRSEDTAVYYCASIYYGYEGTYFGVWGQGTLVTVSSASTKGPSVFPLAPSSKSTSGGTAALGCLVKDYFPEPVTVSWNSGALTSGVHTFPAVLQSSGLYSLSSVVTVPSSSLGTQTYICNVNHKPSNTKVDKKVEPKSCEVQLVESGGGLVQPGGSLRLSCAASGFTFSTYAMNWVRQAPGKGLEWVGRIRSKYNNYATYYADSVKGRFTISRDDSKNSLYLQMNSLKTEDTAVYYCVRHGNFGNSYVSWFAYWGQGTLVTVSSGGGGSDKTHTCPPCPAPEAAGPSVFLFPPKPKDTLMISRTPEVTCVVVDVSHEDPEVKFNWYVDGVEVHNAKTKPREEQYNSTYRVVSVLTVLHQDWLNGKEYKCKVSNKALPAPIEKTISKAKGQPREPQVYTLPPSREEMTKNQVSLWCLVKGFYPSDIAVEWESNGQPENNYKTTPPVLDSDGSFFLYSKLTVDKSRWQQGNVFSCSVMHEALHNHYTQKSLSLSPGGGGGSGGGGSGGGGSGGGGSQVQLVQSGAEVKKPGASVKVSCKASGYTFAGFEMHWVRQAPGQGLEWMGAIDPKTGGTDYNQKFKDRVTMTRDTSISTAYMELSRLRSDDTAVYYCARDLGYFDVWGQGTLVTVSS
chain 2: QVQLVQSGAEVKKPGASVKVSCKASGYTFTSYVMHWVRQKPGQGLEWIGYINPYNEGTESTDKFKGRATMTSDKSTSTVYMELSSLRSEDTAVYYCASIYYGYEGTYFGVWGQGTLVTVSSASTKGPSVFPLAPSSKSTSGGTAALGCLVKDYFPEPVTVSWNSGALTSGVHTFPAVLQSSGLYSLSSVVTVPSSSLGTQTYICNVNHKPSNTKVDKKVEPKSCQAVVTQEPSLTVSPGGTVTLTCRSSTGAVTTSNYANWVQQKPGQAPRGLIGGTNKRAPWTPARFSGSLLGGKAALTITGAQAEDEADYYCALWYSNLWVFGGGTKLTVLGGGGSDKTHTCPPCPAPEAAGPSVFLFPPKPKDTLMISRTPEVTCVVVDVSHEDPEVKFNWYVDGVEVHNAKTKPREEQYNSTYRVVSVLTVLHQDWLNGKEYKCKVSNKALPAPIEKTISKAKGQPREPQVYTLPPSREEMTKNQVSLSCAVKGFYPSDIAVEWESNGQPENNYKTTPPVLDSDGSFFLVSKLTVDKSRWQQGNVFSCSVMHEALHNRFTQKSLSLSPGGGGGSGGGGSGGGGSGGGGSDIQMTQSPSSLSASVGDRVTITCRASQDIRSNLNWYQQKPGGAVKLLIYYTSRLHSGVPSRFSGSGSGTDYTLTISSLQPEDFATYFCQQSEKLPRTFGGGTKVEIR
light: B1 light
notes: Tri-specific antibody: B7H3 Fabs, central CD3 Fv, terminal CD137 Fv; It has no flexible linker

This assay concerns the target T1, B7H3. The experiment in a line: ELISA or FCM (Example 2). A general note: An ELISA detects its analyte on a solid surface through an enzyme-linked reagent.
Consider B1, for which the binding result was “binds”. The result for B2 reads “binds”; that for B3, “binds”.
